# Assay results as given in patent US12533321B2, “Polypeptide formulations for oral delivery” (Bhami's Research Laboratory, Pvt. Ltd., priority 2022, dated 2026).
# What was measured:
# Assay type in all cases: in vivo, Minipigs
# [1] = Pharmacokinetics of adalimumab in albumin crystal sugar truffle shell vs IV, plasma adalimumab by ELISA; set-up: Mean adalimumab levels: unit not given here; conditions: 12 mg; for Mean adalimumab levels: plasma, Pigs
# Source text: The microparticle of albumin crystals containing adalimumab was then lyophilized after washing with cold isopropanol.
# (§1) Pigs in the oral treatment group was either fasted overnight or fed prior to the test sample administration. […] The time of dosage of each animal was noted. […] An antibody, anti-adalimumab was pre-coated onto a 96-well plate. […] The intensity of the yellow color is proportional to the adalimumab amount bound on the plate.
# [2] = Pharmacokinetics of adalimumab in albumin crystal capsule (Vitamin E) vs IV, plasma adalimumab by ELISA; set-up: Mean adalimumab levels: unit not given here; conditions: 12 mg; for Mean adalimumab levels: plasma, Pigs
# Source text: The microparticle of albumin crystals containing adalimumab was then lyophilized after washing with cold isopropanol. […] The capsule was then closed.
# as §1
# [3] = Pharmacokinetics of hGH in albumin crystal sugar truffle shell vs IV, plasma hGH by ELISA; conditions: 0.33 mg; for Mean hGH levels: plasma, Pigs
# Source text: The microparticle of albumin crystals containing hGH was then lyophilized after washing with cold isopropanol.
# (§2) Pigs in the oral treatment group was either fasted overnight or fed prior to the test sample administration. […] The time of dosage of each animal was noted. […] An antibody, anti-hGH was pre-coated onto a 96-well plate. […] The intensity of the yellow color is proportional to the hGH amount bound on the plate.
# [4] = Pharmacokinetics of hGH in albumin crystal capsule (Vitamin E) vs IV, plasma hGH by ELISA
# Source text: The microparticle of albumin crystals containing hGH was then lyophilized after washing with cold isopropanol. […] The capsule was then closed.
# as §2
substance,measurement,setting,value
adalimumab,AUC 0-inf_obs,[1]; Minipigs,2387.704908 µg·h/mL
same,AUC 0-inf_pred,[1]; Minipigs,2433.025437 µg·h/mL
same,AUC t-inf_obs,[1]; Minipigs,1464.822434 µg·h/mL
same,AUC t-inf_pred,[1]; Minipigs,1510.142963 µg·h/mL
same,AUC(0-t),[1]; Minipigs,922.8824739 µg·h/mL
same,AUMC 0-inf_obs,[1]; Minipigs,476541890.8 ng/ml * h^2
same,AUMC 0-inf_pred,[1]; Minipigs,490022798.4 ng/ml * h^2
same,AUMC 0-t,[1]; Minipigs,40820243.03 ng/ml * h^2
same,AUMC 0-t/0-inf_obs,[1]; Minipigs,0.08566
same,AUMC 0-t/0-inf_pred,[1]; Minipigs,0.0833
same,AUMC t-inf_obs,[1]; Minipigs,435721647.8 ng/ml * h^2
same,AUMC t-inf_pred,[1]; Minipigs,449202555.4 ng/ml * h^2
same,C0,[1]; Minipigs,8311 ng/mL
same,Cl_obs,[1]; Minipigs,5.026E−06 (mg)/(ng/ml)/h
same,Cl_pred,[1]; Minipigs,4.932E−06 (mg)/(ng/ml)/h
same,Clast_obs,[1]; Minipigs,7271 ng/mL
same,Clast_pred,[1]; Minipigs,7496 ng/mL
same,Cmax,[1]; Minipigs,12110.42857 ng/mL
same,Lambda_z,[1]; Minipigs,0.00496 h⁻¹
same,MRT 0-inf_obs,[1]; Minipigs,199.6 h
same,MRT 0-inf_pred,[1]; Minipigs,201.4 h
same,MRT 0-t,[1]; Minipigs,44.23 h
same,Tlast,[1]; Minipigs,96 h
same,Tmax,[1]; Minipigs,2 h
same,Vss_obs,[1]; Minipigs,0.001003 (mg)/(ng/ml)
same,Vss_pred,[1]; Minipigs,0.0009934 (mg)/(ng/ml)
same,Vz_obs,[1]; Minipigs,0.001012 (mg)/(ng/ml)
same,Vz_pred,[1]; Minipigs,0.0009936 (mg)/(ng/ml)
same,t½,[1]; Minipigs,139.6393 h
same,Mean adalimumab levels,[1]; 0 hrs,8311.04
same,Mean adalimumab levels,[1]; 0.08 hrs,11638.36
same,Mean adalimumab levels,[1]; 0.5 hrs,11171.29
same,Mean adalimumab levels,[1]; 1 hrs,11637.57
same,Mean adalimumab levels,[1]; 2 hrs,11541.29
same,Mean adalimumab levels,[1]; 4 hrs,12110.43
same,Mean adalimumab levels,[1]; 8 hrs,11914.71
same,Mean adalimumab levels,[1]; 24 hrs,11552.57
same,Mean adalimumab levels,[1]; 48 hrs,10162.00
same,Mean adalimumab levels,[1]; 72 hrs,9803.00
same,Mean adalimumab levels,[1]; 96 hrs,8772.00
same,AUC 0-inf_obs,[2]; Minipigs,2387.704908 µg·h/mL
same,AUC 0-inf_pred,[2]; Minipigs,2433.025437 µg·h/mL
same,AUC t-inf_obs,[2]; Minipigs,1464.822434 µg·h/mL
same,AUC t-inf_pred,[2]; Minipigs,1510.142963 µg·h/mL
same,AUC(0-t),[2]; Minipigs,922.8824739 µg·h/mL
same,AUMC 0-inf_obs,[2]; Minipigs,476541890.8 ng/ml * h^2
same,AUMC 0-inf_pred,[2]; Minipigs,490022798.4 ng/ml * h^2
same,AUMC 0-t,[2]; Minipigs,40820243.03 ng/ml * h^2
same,AUMC 0-t/0-inf_obs,[2]; Minipigs,0.08566
same,AUMC 0-t/0-inf_pred,[2]; Minipigs,0.0833
same,AUMC t-inf_obs,[2]; Minipigs,435721647.8 ng/ml * h^2
same,AUMC t-inf_pred,[2]; Minipigs,449202555.4 ng/ml * h^2
same,C0,[2]; Minipigs,8311 ng/mL
same,Cl_obs,[2]; Minipigs,5.026E−06 (mg)/(ng/ml)/h
same,Cl_pred,[2]; Minipigs,4.932E−06 (mg)/(ng/ml)/h
same,Clast_obs,[2]; Minipigs,7271 ng/mL
same,Clast_pred,[2]; Minipigs,7496 ng/mL
same,Cmax,[2]; Minipigs,12110.42857 ng/mL
same,Lambda_z,[2]; Minipigs,0.00496 h⁻¹
same,MRT 0-inf_obs,[2]; Minipigs,199.6 h
same,MRT 0-inf_pred,[2]; Minipigs,201.4 h
same,MRT 0-t,[2]; Minipigs,44.23 h
same,Tlast,[2]; Minipigs,96 h
same,Tmax,[2]; Minipigs,2 h
same,Vss_obs,[2]; Minipigs,0.001003 (mg)/(ng/ml)
same,Vss_pred,[2]; Minipigs,0.0009934 (mg)/(ng/ml)
same,Vz_obs,[2]; Minipigs,0.001012 (mg)/(ng/ml)
same,Vz_pred,[2]; Minipigs,0.0009936 (mg)/(ng/ml)
same,t½,[2]; Minipigs,139.6393 h
same,Mean adalimumab levels,[2]; 0 hrs,8311.04
same,Mean adalimumab levels,[2]; 0.08 hrs,11638.36
same,Mean adalimumab levels,[2]; 0.5 hrs,11171.29
same,Mean adalimumab levels,[2]; 1 hrs,11637.57
same,Mean adalimumab levels,[2]; 2 hrs,11541.29
same,Mean adalimumab levels,[2]; 4 hrs,12110.43
same,Mean adalimumab levels,[2]; 8 hrs,11914.71
same,Mean adalimumab levels,[2]; 24 hrs,11552.57
same,Mean adalimumab levels,[2]; 48 hrs,10162.00
same,Mean adalimumab levels,[2]; 72 hrs,9803.00
same,Mean adalimumab levels,[2]; 96 hrs,8772.00
"hGH: human growth hormone (human recombinant), given IV",AUC 0-inf_obs,[3]; Minipigs,0.160057765 µg·h/mL
same,AUC 0-inf_pred,[3]; Minipigs,0.158135382 µg·h/mL
same,AUC t-inf_obs,[3]; Minipigs,0.005998634 µg·h/mL
same,AUC t-inf_pred,[3]; Minipigs,0.004076251 µg·h/mL
same,AUC(0-t),[3]; Minipigs,0.154059131 µg·h/mL
same,AUMC 0-inf_obs,[3]; Minipigs,1696005.242 pg/ml * h^2
same,AUMC 0-inf_pred,[3]; Minipigs,1578826.575 pg/ml * h^2
same,AUMC 0-t,[3]; Minipigs,1330359.118 pg/ml * h^2
same,AUMC 0-t/0-inf_obs,[3]; Minipigs,0.784
same,AUMC 0-t/0-inf_pred,[3]; Minipigs,0.843
same,AUMC t-inf_obs,[3]; Minipigs,365646.123 pg/ml * h^2
same,AUMC t-inf_pred,[3]; Minipigs,248467.457 pg/ml * h^2
same,C0,[3]; Minipigs,18.14454 ng/mL
same,Cl_obs,[3]; Minipigs,0.000 (mg)/(pg/ml)/h
same,Clast_obs,[3]; Minipigs,0.46304 ng/mL
same,Clast_pred,[3]; Minipigs,0.31465 ng/mL
same,Cmax,[3]; Minipigs,22.5132 ng/mL
same,Lambda_z,[3]; Minipigs,0.077 h⁻¹
same,MRT 0-inf_obs,[3]; Minipigs,10.596 h
same,MRT 0-inf_pred,[3]; Minipigs,9.984 h
same,MRT 0-t,[3]; Minipigs,8.635 h
same,Tlast,[3]; Minipigs,48.000 h
same,Tmax,[3]; Minipigs,0.500 h
same,Vss_obs,[3]; Minipigs,0.000 (mg)/(pg/ml)
same,Vz_obs,[3]; Minipigs,0.000 (mg)/(pg/ml)
same,t½,[3]; Minipigs,8.980 h
same,Mean hGH levels,[3]; 0 hrs,18144.54 ± 1619.64 pg/mL
same,Mean hGH levels,[3]; 0.08 hrs,20014.87 ± 620.32 pg/mL
same,Mean hGH levels,[3]; 0.5 hrs,22513.2 ± 562.85 pg/mL
same,Mean hGH levels,[3]; 1 hrs,22130.7 ± 728.54 pg/mL
same,Mean hGH levels,[3]; 4 hrs,14910.13 ± 2908.87 pg/mL
same,Mean hGH levels,[3]; 8 hrs,1159.19 ± 226.15 pg/mL
same,Mean hGH levels,[3]; 24 hrs,1495.55 ± 291.77 pg/mL
same,Mean hGH levels,[3]; 48 hrs,463.04 ± 90.34 pg/mL
same,Mean hGH levels,[4]; 0 h,18144.54 ± 1619.64 pg/mL
same,AUC 0-inf_obs,"[4]; 0.33 mg, Minipigs",0.160057765 µg·h/mL
same,AUC 0-inf_pred,"[4]; 0.33 mg, Minipigs",0.158135382 µg·h/mL
same,AUC t-inf_obs,"[4]; 0.33 mg, Minipigs",0.005998634 µg·h/mL
same,AUC t-inf_pred,"[4]; 0.33 mg, Minipigs",0.004076251 µg·h/mL
same,AUC(0-t),"[4]; 0.33 mg, Minipigs",0.154059131 µg·h/mL
same,AUMC 0-inf_obs,"[4]; 0.33 mg, Minipigs",1696005.242 pg/ml * h^2
same,AUMC 0-inf_pred,"[4]; 0.33 mg, Minipigs",1578826.575 pg/ml * h^2
same,AUMC 0-t,"[4]; 0.33 mg, Minipigs",1330359.118 pg/ml * h^2
same,AUMC 0-t/0-inf_obs,"[4]; 0.33 mg, Minipigs",0.784
same,AUMC 0-t/0-inf_pred,"[4]; 0.33 mg, Minipigs",0.843
same,AUMC t-inf_obs,"[4]; 0.33 mg, Minipigs",365646.123 pg/ml * h^2
same,AUMC t-inf_pred,"[4]; 0.33 mg, Minipigs",248467.457 pg/ml * h^2
same,C0,"[4]; 0.33 mg, Minipigs",18.14454 ng/mL
same,Cl_obs,"[4]; 0.33 mg, Minipigs",0.000 (mg)/(pg/ml)/h
same,Clast_obs,"[4]; 0.33 mg, Minipigs",0.46304 ng/mL
same,Clast_pred,"[4]; 0.33 mg, Minipigs",0.31465 ng/mL
same,Cmax,"[4]; 0.33 mg, Minipigs",22.5132 ng/mL
same,Lambda_z,"[4]; 0.33 mg, Minipigs",0.077 h⁻¹
same,MRT 0-inf_obs,"[4]; 0.33 mg, Minipigs",10.596 h
same,MRT 0-inf_pred,"[4]; 0.33 mg, Minipigs",9.984 h
same,MRT 0-t,"[4]; 0.33 mg, Minipigs",8.635 h
same,Tlast,"[4]; 0.33 mg, Minipigs",48.000 h
same,Tmax,"[4]; 0.33 mg, Minipigs",0.500 h
same,Vss_obs,"[4]; 0.33 mg, Minipigs",0.000 (mg)/(pg/ml)
same,Vz_obs,"[4]; 0.33 mg, Minipigs",0.000 (mg)/(pg/ml)
same,t½,"[4]; 0.33 mg, Minipigs",8.980 h
same,Mean hGH levels,[4]; 0.08 h,20014.87 ± 620.32 pg/mL
same,Mean hGH levels,[4]; 0.5 h,22513.2 ± 562.85 pg/mL
same,Mean hGH levels,[4]; 1 h,22130.7 ± 728.54 pg/mL
same,Mean hGH levels,[4]; 4 h,14910.13 ± 2908.87 pg/mL
same,Mean hGH levels,[4]; 8 h,1159.19 ± 226.15 pg/mL
same,Mean hGH levels,[4]; 24 h,1495.55 ± 291.77 pg/mL
same,Mean hGH levels,[4]; 48 h,463.04 ± 90.34 pg/mL
